Data as given in patent US6881545 (Takeda / Millennium, dated 2005).
No end group written: not given here.

Biological target: T1, human pituitary-derived G protein-coupled receptor protein encoded by phGR3 (hGR3), expressed on CHO-19P2 / … (human, UniProt P49683 1-370)
T1 construct: CHO-19P2-9 is a monoclone of CHO-19P2 selected for a stronger response to 19P2-L31; also called full-length receptor protein; 19P2 receptor
T1 sequence: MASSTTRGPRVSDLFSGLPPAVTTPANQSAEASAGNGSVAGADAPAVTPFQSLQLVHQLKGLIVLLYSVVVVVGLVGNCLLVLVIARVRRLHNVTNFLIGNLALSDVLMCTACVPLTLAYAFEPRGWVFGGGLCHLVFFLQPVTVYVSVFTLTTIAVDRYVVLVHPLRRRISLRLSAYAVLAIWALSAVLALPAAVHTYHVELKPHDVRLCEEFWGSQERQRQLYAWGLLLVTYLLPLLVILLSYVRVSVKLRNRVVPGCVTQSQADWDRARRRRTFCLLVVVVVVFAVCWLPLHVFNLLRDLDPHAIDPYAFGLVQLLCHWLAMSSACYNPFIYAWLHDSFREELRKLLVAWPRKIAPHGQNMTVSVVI
Assay: radioligand binding on live CHO-19P2-9 cells, 200 pM tracer, non-specific binding with 200 nM unlabeled 19P2-L31, filtration
Description: As receptor-expressing CHO cells, CHO-19P2-9; mono-clone of CHO-19P2, CHO-UHR-1, and mock CHO were used in this experiment. CHO-19P2-9 cells are ones selected from CHO-19P2 cells by ultradilution technique using 96-well microplate as clone which indicated stronger arachidonic acid metabolic-release promoting reaction by 19P2-L31. The mock CHO cells are ones for control which were transformed with expression vector pAKKO alone. These cells cultured in flasks for culturing tissues were harvested with 5 mM EDTA/PBS, and then resuspended in HBSS containing 0.05% BSA and 0.05% CHAPS at 0.5 ×10^7 cells/ml. […] The reaction mixture were diluted with 2 ml of an ice-cold beffer (50 mM Tris-HCl pH7.5 containing 5 mM EDTA, 0.05% BSA, and 0.05% CHAPS) and immediately filtered though glass filters GF/F (Whattman) which were pre-wetted with the buffer containing 0.3% polyethylenimine. The glass filters were subjected to γ-counting. Non-specific binding was determined in the presence of 200 nM unlabeled 19P2-L31.

B1: [^125I]-19P2-L31 (19P2-L31 radioiodinated with [^125I]-Bolton-Hunter Reagent) (peptide)
peptide: SRAHQHSMEIRTPDINPAWYAGRGIRPVGRF-NH2
modifications: also: radioiodinated with [125I]-Bolton-Hunter reagent, site not given here
notes: also called radioiodinated 19P2-L31; radioiodinated ligand polypeptide
binding result: binds
